According to FireProtDB (doi:10.1016/j.bbapap.2007.05.016):
Values joined by “and” are separate entries in the source; they are usually repeats but may differ in a detail not shown here. Equal entries are not always repeated.

B1: Chitosanase, P33665 (parent)
chain: MHSQHRTARIALAVVLTAIPASLATAGVGYASTQASTAVKAGAGLDDPHKKEIAMELVSSAENSSLDWKAQYKYIEDIGDGRGYTGGIIGFCSGTGDMLELVQHYTDLEPGNILAKYLPALKKVNGSASHSGLGTPFTKDWATAAKDTVFQQAQNDERDRVYFDPAVSQAKADGLRALGQFAYYDAIVMHGPGNDPTSFGGIRKTAMKKARTPAQGGDETTYLNAFLDARKAAMLTEAAHDDTSRVDTEQRVFLKAGNLDLNPPLKWKTYGDPYVINS

Variants of: B1
Conditions: Streptomyces sp. (strain N174), pH 4.5, Thermal, Fluorescence, reversible: No, structure 1CHK, whole UniProt chain shown

Variant	Tm (Sodium acetate 50 mM) [°C]	change of melting temperature, mutant - wild type (higher = more stable) (Sodium acetate 50 mM) [°C]	change of melting temperature, mutant - wild type (higher = more stable) (Sodium acetate 100 mM)
MHSQHRTARIALAVVLTAIPASLATAGVGYASTQASTAVKAGAGLDDPHKKEIAMELVSSAENSSLDWKAQYKYIEDIGDGRGYTGGIIGFCSGTGDMLELVQHYTDLEPGNILAKYLPALKKVNGSASHSGLGTPFTKDWATLAKDTVFQQAQNDERDRVYFDPAVSQAKADGLRALGQFAYYDAIVMHGPGNDPTSFGGIRKTAMKKARTPAQGGDETTYLNAFLDARKAAMLTEAAHDDTSRVDTEQRVFLKAGNLDLNPPLKWKTYGDPYVINS [A144L]	48	-5.5	-5.3 °C and -6.2 °C and -7 °C
MHSQHRTARIALAVVLTAIPASLATAGVGYASTQASTAVKAGAGLDDPHKKEIAMELVSSAENSSLDWKAQYKYIEDIGDGRGYTGGIIGFCSGTGDMLELVQHYTDLEPGNILAKYLPALKKVNGSASHSGLGTPFTKDWATAAKDTVFQQAQNDERDRVYFDPAVSQAKADGLRALGQFAYYDAIVMHGPGNDPTSFGGIRRTAMKKARTPAQGGDETTYLNAFLDARKAAMLTEAAHDDTSRVDTEQRVFLKAGNLDLNPPLKWKTYGDPYVINS [K204R]			-1 °C and -0.2 °C and -0.9 °C
